{"source": "the supplement of paper PMC7125110", "parents": {"B1": {"name": "glmS ribozyme (parent)", "chain": "AUAAAAGCGCCAGAACUACAGAAAUGUAGUUGACGAGGAGGAGGUUUAUCGAAUUUUCGGCGGAUGCCUCCAAA"}}, "note": "± gives the standard error. This sample holds only a part of the variants without activity."}
{"variants_of": "B1", "assay": "self-cleavage kobs at 2500 uM GlcN6P; higher = faster cleavage; RNA array", "conditions": "with glucosamine-6-phosphate", "how_it_was_run": "(§1)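 Glucosamine-6-phosphate in HEPES/KCl/Mg(OAc)2 buffer, at 40 μM to 10 mM, was flowed over barcoded ribozyme variants transcribed in situ by E. coli RNA polymerase on sequenced MiSeq chips. Tracking was through a hybridised Cy3 probe at 37 °C. kobs, kcat and KM came from exponential decay fits and weighted Michaelis–Menten fits of normalised per-tile medians.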", "units": {"self-cleavage kobs at 2500 uM GlcN6P": "s⁻¹"}}
{"variant": "AUAAAGGCGCCAGAACUACAGAAAUGUAGUUGACGAGGAGUAGGUGUAUCGAAUUUUCGCCGGAUGCCUCCAAA", "self-cleavage kobs at 2500 uM GlcN6P": "< 1e-05"}
{"variant": "AUAAAAGCGUCAGAGCUACAGAAAUGUAGUAUACGAGGAGGAGGUUUAUCGAAUUUUCGGCGGAGGCCUCCAAA", "self-cleavage kobs at 2500 uM GlcN6P": "< 1e-05"}
{"variant": "AUAAAAGCGCCAGCACUACAGAAAUGUAGUUGACGUGGAGGAGGUUUAUCGAAUUUUCUGCGGAUGCCUCCAAA", "self-cleavage kobs at 2500 uM GlcN6P": "< 1e-05"}
{"variant": "AUAAACGCGCCAGAACUACAGAAAUGUAGUCGACGAGGAGCGGGGUUAUCGAAUUUUCCGCGGAUUCCUCCAAA", "self-cleavage kobs at 2500 uM GlcN6P": "< 1e-05"}
{"variant": "AUAAAAGCGCCAGAACUACAGAAAUGUAGUUGACGAGGAGGAGGUUUAUCGAUCAUUCGGCGGGUGCCUCCAAA", "self-cleavage kobs at 2500 uM GlcN6P": "0.00369 ± 0.00074"}
{"variant": "AUAAAAGCGCCAGGACUACAGAAAUGUAGUUGAAGAGGAGGAGGUUUAUCGAAUGUUCGGCGGAUGCCUACAAA", "self-cleavage kobs at 2500 uM GlcN6P": "< 1e-05"}
{"variant": "AUAAAAGCGCCAGAACUACAGAAAUGUAGUUGACGAUGAGGAGGUUUAUCGACUUUUCGGCGGAUGCCUCCAAA", "self-cleavage kobs at 2500 uM GlcN6P": "< 1e-05"}
{"variant": "AUAAAAGCGCCAGAUCUACAGAAAUGUAGUUGACCAGGAGGAGGUUUAUCGAAUUUUCGGCGGAUGCGUCCAAA", "self-cleavage kobs at 2500 uM GlcN6P": "< 1e-05"}
{"variant": "AUAAAAGCGCCAGGCCUACAGAAAUGUAGUUGACGAGGAGGAGGUUUAUCGAAUUUUCGGCGGAUGCCUCAAAA", "self-cleavage kobs at 2500 uM GlcN6P": "0.00262 ± 0.00058"}
{"variant": "AUAAAAGCGCCAGAACUACAGAAAUGUAGUUUACGAGGAGGAAGUUUAUCGAAUUUUCGGCGGGUGCCUCCAAA", "self-cleavage kobs at 2500 uM GlcN6P": "< 1e-05"}
{"variant": "AUAAAAGCGCCAGACCUACAGAAAUGUAGUUGACGAGGAGGAAUUUUAUCGAAUUUUCUGCGGAUGCCUCCAAA", "self-cleavage kobs at 2500 uM GlcN6P": "< 1e-05"}
{"variant": "AUAAAACCGCCAAAACUACAGAAAUGUAGUUGACGAGGAGGAGGUUUAUCGUAUUUUCGGCGGAUCCCUCCAAA", "self-cleavage kobs at 2500 uM GlcN6P": "< 1e-05"}
{"variant": "AUAAAAGCGCCAGAACUACAGAAAUGUAGUUGAGGAGGAGGAGGUUUAUCGAAUUUUAGGCGGAUGCCUCUAAA", "self-cleavage kobs at 2500 uM GlcN6P": "< 1e-05"}
{"variant": "AUAAAAGCGCCGUAACUACAGAAAUGUAGUUGACGAGGAGGAGGUUUAUCGAAUUUUCGUCGGAUGCCUCCAAA", "self-cleavage kobs at 2500 uM GlcN6P": "< 1e-05"}
{"variant": "AUAAAAGCACCAGAACUACAGAAAUGUAGUUGCCGAGGCGGAGGUUUAUCGAAUUUACGGCGGAUGCCUCCAAA", "self-cleavage kobs at 2500 uM GlcN6P": "< 1e-05"}
{"variant": "AUAAAAGCGCCAGAACUACAGAAAUGUAGUUGACGAGGAGGAGGAUGAUCUAAUUUUCGGCGGGGGCCUCCAAA", "self-cleavage kobs at 2500 uM GlcN6P": "< 1e-05"}
{"variant": "AUAAAGGCGCCAGCACUACAGAAAUGUAGUUGACGAGGACGAGGUUUAUCGAUUUUUCGCCGGAUGCCUCCAAA", "self-cleavage kobs at 2500 uM GlcN6P": "< 1e-05"}
{"variant": "AUAAACGCGCCUGAACUACAGAAAUGUAGUUGACGAGGAGGAGGUUUAACGAGAUUUCGGCGGAUGCCUCCAAA", "self-cleavage kobs at 2500 uM GlcN6P": "< 1e-05"}
{"variant": "AUAAAAGCGCCAGAACUACAGAAAUGUAGAUGACGAGGAGGACGUUUAUCCAAUUUUCGGCGGAUGGCUCCAAA", "self-cleavage kobs at 2500 uM GlcN6P": "< 1e-05"}
{"variant": "AUAAAAGCGCCAGGACUACAGAAAUGUAGUUGACGAUGAGGAGUUUUAUCGAAUUUUCGGCGGAUGCCUCCAAA", "self-cleavage kobs at 2500 uM GlcN6P": "< 1e-05"}
{"variant": "AUAAAAGCGCCCGAACUACAGAAAUGUAGUUGGCGAGGAGGAGGUUUAUCGAAUUUUCGGCGGAUGCCUCCAAA", "self-cleavage kobs at 2500 uM GlcN6P": "< 1e-05"}
{"variant": "AUAAAAGCGCCAGAACUACAGAAAUGUAGUUGACGAUGUGGAGCUUUAUGGAAUUUUCGGCGGAUGCCUUCAAA", "self-cleavage kobs at 2500 uM GlcN6P": "< 1e-05"}
{"variant": "AUAAAAGCCCCGGAACUACAGAAAUGUAGUUGACGAGGAGGAGGUUUAUCGAAUUUUGGGCGGAUGCCUCCAAA", "self-cleavage kobs at 2500 uM GlcN6P": "< 1e-05"}
{"variant": "AUAAAAGCGCCAGUACUACAGAAAUGUAGUUGACGAGGACGAGGUCUAUCGAGUUUUCGGCGGAUGCCUCGAAA", "self-cleavage kobs at 2500 uM GlcN6P": "0.00101 ± 0.00038"}
{"variant": "AUAAAAGCGCCGGAACUACAGAAAUGUAGAUGACGAGGAGGAGGUUUAUCGAAUUUUCGGCGGAUGCCCCCAAA", "self-cleavage kobs at 2500 uM GlcN6P": "5.49e-05 ± 1.7e-05"}
{"variant": "AUAAAAGCACCAGAACUACAGAAAUGUAGUUGACGAGGAGGAGGUUUAUGGAAUAUUCGGCGGAUGGCUCCAAA", "self-cleavage kobs at 2500 uM GlcN6P": "4.95e-05 ± 1.9e-05"}
{"variant": "AUAAAACCGCGUGAACUACAGAAAUGUAGUUGACGAGGAGGAGGUUUAUCGAAUUUUCGGCGGAUGCCUCCAAA", "self-cleavage kobs at 2500 uM GlcN6P": "< 1e-05"}
{"variant": "AUAAAAGCGCCAGAACUACAGAAAUGUAGUUGACGAGGAGGAGGUUUAUUGAAUUUUAGGCGGAUGCCUGCAAA", "self-cleavage kobs at 2500 uM GlcN6P": "7.55e-05 ± 2.9e-05"}
{"variant": "AUAAAAUCGCCAGAACUACAGAAAUGUAGUUGACGAGGAGGAGGUUGAUCGUAUUUUCGGCGGAUGCCUCCAAA", "self-cleavage kobs at 2500 uM GlcN6P": "< 1e-05"}
{"variant": "AUAAACGCGCCAGAACUACAGAAAUGUAAUUGACGAUGAGGAGGUUUAUCGAAUUUUCGGCGGAUGCCUCCAAA", "self-cleavage kobs at 2500 uM GlcN6P": "< 1e-05"}
{"variant": "AUAAAAGCGCCAGAAGUACAGAAAUGUAGUUGACGAGGAGGAGGUUUCUCGAAUUUUCGUCGGUUGCCUCCAAA", "self-cleavage kobs at 2500 uM GlcN6P": "< 1e-05"}
{"variant": "AUAAAAGCGCUAGAACUACAGAAAUGUAGUUGACGAGGAGGAGGUGUAUCGUAUUUUCGGCGGAUACCUCCAAA", "self-cleavage kobs at 2500 uM GlcN6P": "< 1e-05"}
{"variants_of": "B1", "assay": "self-cleavage kobs at 10000 uM GlcN6P; higher = faster cleavage; RNA array", "conditions": "with glucosamine-6-phosphate", "how_it_was_run": "as §1", "units": {"self-cleavage kobs at 10000 uM GlcN6P": "s⁻¹"}}
{"variant": "AUAAACGCGCCAGAACUACAGAAAUGUAGUCGACGAGGAGCGGGGUUAUCGAAUUUUCCGCGGAUUCCUCCAAA", "self-cleavage kobs at 10000 uM GlcN6P": "< 1e-05"}
{"variant": "AUAAAAGCGCCAGAACUACAGAAAUGUAGUUGACGAUGAGGAGGUUUAUCGACUUUUCGGCGGAUGCCUCCAAA", "self-cleavage kobs at 10000 uM GlcN6P": "< 1e-05"}
{"variant": "AUAAAAGCGCCGUAACUACAGAAAUGUAGUUGACGAGGAGGAGGUUUAUCGAAUUUUCGUCGGAUGCCUCCAAA", "self-cleavage kobs at 10000 uM GlcN6P": "< 1e-05"}
{"variant": "AUAAAAGCGCCCGAACUACAGAAAUGUAGUUGGCGAGGAGGAGGUUUAUCGAAUUUUCGGCGGAUGCCUCCAAA", "self-cleavage kobs at 10000 uM GlcN6P": "< 1e-05"}
{"variant": "AUAAAAGCGCCAGUACUACAGAAAUGUAGUUGACGAGGACGAGGUCUAUCGAGUUUUCGGCGGAUGCCUCGAAA", "self-cleavage kobs at 10000 uM GlcN6P": "0.00202 ± 0.00042"}
